Each block holds one binder with its values, some of them ahead of it. Square brackets hold non-standard residues; d marks the D form. Ends that are not written are not given here. * marks the point of attachment. Benzoyl(3-OMe) = COc1cccc(C(=O)*)c1; Benzoyl(4-OMe) = COc1ccc(C(=O)*)cc1
Tests used:
[1] = biological target: MC receptor endogenous to Xenopus laevis melanophores (Xenopus laevis); assay: cell-based or functional assay
[2] = biological target: MC receptor endogenous to Xenopus laevis melanophores (Xenopus laevis); assay: Schild regression; suppression of α-MSH-induced pigment dispersion in Xenopus melanophores (functional)
[3] = biological target: MC receptor endogenous to Xenopus laevis melanophores (Xenopus laevis); assay: Schild plot regression analysis, frog melanophores (functional)
[4] = biological target: MC receptor endogenous to Xenopus laevis melanophores (Xenopus laevis); assay: Schild plot; antagonism of α-MSH pigment dispersion in Xenopus melanophores (functional)

- Ki [2]: 0.7 nM
- EC50 of α-MSH in frog melanophores in the presence of 30 nM ARP fragment [1]: 19 nM
- Ki [3]: 0.21 nM
B2: human agouti-related protein fragment ARP-(83-132)-NH2 (peptide)
peptide: SSRRCVRLHESCLGQQVPCCDPCATCYCRFFNAFCYCRKLGTAMNPCSRT-NH2
modifications: disulfide (positions not given here); not fully specified (bridges); also: five disulfides among the 10 Cys, arrangement undetermined

- MCR IC50 nM: antagonism of α-MSH (600 pM) darkening of frog melanophores [1]: 62 nM
B3: SQW-13 (peptide)
peptide: {Benzoyl(3-OMe)}-RRIRPKA-NH2
SMILES: CC[C@H](C)[C@H](NC(=O)[C@H](CCCNC(=N)N)NC(=O)[C@H](CCCNC(=N)N)NC(=O)c1cccc(OC)c1)C(=O)N[C@@H](CCCNC(=N)N)C(=O)N1CCC[C@H]1C(=O)N[C@@H](CCCCN)C(=O)N[C@@H](C)C(N)=O

Second part, the binder before the results:

B1: SQW-12 (peptide)
peptide: {Benzoyl(3-OMe)}-RRIRPAL-NH2
SMILES: CC[C@H](C)[C@H](NC(=O)[C@H](CCCNC(=N)N)NC(=O)[C@H](CCCNC(=N)N)NC(=O)c1cccc(OC)c1)C(=O)N[C@@H](CCCNC(=N)N)C(=O)N1CCC[C@H]1C(=O)N[C@@H](C)C(=O)N[C@@H](CC(C)C)C(N)=O
- MCR IC50 nM: antagonism of α-MSH (600 pM) darkening of frog melanophores [1]: 1600 nM

B4: p-anisoyl-[D-Leu^12] dynorphin A(6-12)-NH2 (peptide)
peptide: {Benzoyl(4-OMe)}-RRIRPK[dL]-NH2
- MCR IC50 nM: antagonism of α-MSH (600 pM) darkening of frog melanophores [1]: 29 nM
- Ki [4]: 27 nM
- pKi [4]: 7.57
